Literature values, collected in doi:10.1101/2024.09.16.613101.

Legend:
His57 = His57 (UniProt position 57, VVTAAHCGVTT); settings: not stated (the structure used for prediction is described as the apoenzyme)
Cys46 = Cys46 (UniProt position 47, DFTFVCPTELG)
Glu28 = Glu28 (UniProt position 54, GYQLHEDGETV); assay: NMR; settings: native (folded) state, according to the title of ref 70; ligand state not stated
Glu58 = Glu58 (UniProt position 84, SSPYYEWPILS); assay: NMR; settings: native (folded) state, according to the title of ref 70; ligand state not stated
His27 = His27 (UniProt position 53, AGYQLHEDGET); assay: NMR; settings: native (folded) state, according to the title of ref 70; ligand state not stated
His40 = His40 (UniProt position 66, SNSYPHKYNNY); assay: NMR; settings: native (folded) state, according to the title of ref 70; ligand state not stated
His92 = His92 (UniProt position 118, AGVITHTGASG); assay: NMR; settings: native (folded) state, according to the title of ref 70; ligand state not stated

For chymotrypsin, the pKa (His57) is given as 7.5.

For “peroxiredoxin AhpC (alkyl hydroperoxide reductase subunit C) (bacterial (species not stated in the article))”, the pKa (Cys46) is given as 5.94.

In the case of “ribonuclease T1 (Aspergillus oryzae (not stated in the article; inferred))”, the pKa (Glu28) is given as 5.61, the pKa (Glu58) is given as 3.96 and the pKa (His27) is given as 7.57. For the same substance, the pKa (His40) was 7.44 and the pKa (His92) was 7.31.
